# Test results taken from publication PMC4664265, “Substrate-Induced Dimerization of Engineered Monomeric Variants of Triosephosphate Isomerase from Trichomonas vaginalis” (PLoS ONE, 2015).
# What was measured:
# [1] = biological target: TvTIM1 I45A (Trichomonas vaginalis) (UniProt A2EGX9); test: SEC; gel filtration at 7 mg/ml (~260 μM) in Tris pH 7.4, 100 mM NaCl; dimer to monomers
# [2] = biological target: TvTIM1 I45A (Trichomonas vaginalis) (UniProt A2EGX9)
# [3] = biological target: TvTIM1 I45A (Trichomonas vaginalis) (UniProt A2EGX9); test: AUC
# [4] = biological target: TvTIM1 I45Y (Trichomonas vaginalis) (UniProt A2EGX9)
# [5] = biological target: TvTIM1 I45G (Trichomonas vaginalis) (UniProt A2EGX9); test: SEC; gel filtration at 7 mg/ml (~260 μM) in Tris pH 7.4, 100 mM NaCl; dimer to monomers
# [6] = biological target: TvTIM1 I45G (Trichomonas vaginalis) (UniProt A2EGX9)
# [7] = biological target: TvTIM1 I45G-Q52C double mutant (Trichomonas vaginalis) (UniProt A2EGX9)
# [8] = biological target: TvTIM1 I45F (Trichomonas vaginalis) (UniProt A2EGX9)
# [9] = biological target: the molecule itself; test: SEC; gel filtration at 7 mg/ml (~260 μM) in Tris pH 7.4, 100 mM NaCl; dimer to monomers
# [10] = biological target: the molecule itself; test: AUC; sedimentation velocity, 20°C, 129,024 rcf, absorbance at 280 nm, c(s) with SEDFIT; protein 7 to 35 μM, no ligand
molecule,measurement,setting,value
TvTIM1 I45A (from UniProt A2EGX9) (enzyme),percent of the total injected protein in the dimer peak,[1],13%
same,percent of the total protein in the dimer peak,[1],3%
same,"Kcat/Km (substrate DGAP, coupled assay, 25°C; enzyme at 2 nM)",[2],198000 M⁻¹ s⁻¹
same,percent dimer with 20 μM PGH,[3],17%
same,percent dimer with 250 μM PGH,[3],38%
same,percent dimer with 600 μM PGH,[3],38%
same,percent dimer with 1000 μM PGH,[3],44%
same,percent dimer with 2000 μM PGH,[3],46%
TvTIM1 I45Y (from UniProt A2EGX9) (enzyme),"Kcat/Km (substrate DGAP, coupled assay, 25°C; enzyme at 12 nM)",[4],12200 M⁻¹ s⁻¹
TvTIM1 I45G (from UniProt A2EGX9) (enzyme),percent of the total protein in the dimer peak,[5],6%
same,"Kcat/Km (substrate DGAP, coupled assay, 25°C; enzyme at 5 nM)",[6],40800 M⁻¹ s⁻¹
TvTIM1 I45G-Q52C double mutant (from UniProt A2EGX9 1-252) (enzyme),"Kcat/Km of I45G-Q52C before cross-linking (substrate DGAP, coupled assay, 25°C)",[7],39700 M⁻¹ s⁻¹
same,"Kcat/Km of the purified cross-linked I45G-Q52C dimer (substrate DGAP, coupled assay, 25°C)",[7],2.5e+06 M⁻¹ s⁻¹
TvTIM1 I45F (from UniProt A2EGX9) (enzyme),"Kcat/Km (substrate DGAP, coupled assay, 25°C; enzyme at 10 nM)",[8],33300 M⁻¹ s⁻¹
TvTIM1 I45V (enzyme) MRTFFVGGNWKANPKTVEEAEKLIEMLNGAKVEGNVEVVVAAPFVFLPTLQQKLRKDWKVSAENVFTKPNGAFTGEVTVPMIKSFGIEWTILGHSERRDILKEDDEFLAAKAKFALENGMKIIYCCGEHLSEREAGKASEFVSAQIEKMIPAIPAGKWDDVVIAYEPIWAIGTGKVASTQDAQEMCKVIRDILAAKVGADIANKVRILYGGSVKPNNCNELAACPDVDGFLVGGASLEPGFINIVNSNVHSK,stoichiometry N,[9],2
"Triosephosphate isomerase 1 from Trichomonas vaginalis, wild type (enzyme, UniProt A2EGX9 1-252, looked up, triosephosphate isomerase TvTIM1 of Trichomonas vaginalis; Homodimer in solution (gel filtration, AUC); the rows are of one chain with another; also called TvTIM1; TIM1WT) MRTFFVGGNWKANPKTVEEAEKLIEMLNGAKVEGNVEVVVAAPFIFLPTLQQKLRKDWKVSAENVFTKPNGAFTGEVTVPMIKSFGIEWTILGHSERRDILKEDDEFLAAKAKFALENGMKIIYCCGEHLSEREAGKASEFVSAQIEKMIPAIPAGKWDDVVIAYEPIWAIGTGKVASTQDAQEMCKVIRDILAAKVGADIANKVRILYGGSVKPNNCNELAACPDVDGFLVGGASLEPGFINIVNSNVHSK",stoichiometry N,[10],2
TvTIM1 I45L (enzyme) MRTFFVGGNWKANPKTVEEAEKLIEMLNGAKVEGNVEVVVAAPFLFLPTLQQKLRKDWKVSAENVFTKPNGAFTGEVTVPMIKSFGIEWTILGHSERRDILKEDDEFLAAKAKFALENGMKIIYCCGEHLSEREAGKASEFVSAQIEKMIPAIPAGKWDDVVIAYEPIWAIGTGKVASTQDAQEMCKVIRDILAAKVGADIANKVRILYGGSVKPNNCNELAACPDVDGFLVGGASLEPGFINIVNSNVHSK,stoichiometry N,[9],2
